# From PMC10575581 (Science Advances, 2023)
# Target: the molecule itself
# Assay: cryo-EM structure; Der^Δ-p97^Δ complex from Sf9 with ATP·BeFx added through the whole purification; closed class 3.65 Å and open (state U) class 4.51 Å
protein,measurement,value
"human Derlin-1 Δ215–239, C-terminal twin strep tag (Sf9) (natural protein, UniProt Q9BUN8-1 1-251, looked up, Derlin-1, human, cDNA NCBI NM_024295.6, whole protein with residues 215 to 239 (loop between TM6 and the SHP box) deleted; a PreScission Protease cleavage site stands before the C-terminal twin strep tag; Cleavage of the tag is not described; also called Der^Δ; truncated Derlin-1; source: Sf9, baculovirus (pFastBac-Dual), coexpressed with p97 Δ1–20, co-purified (Strep-Tactin, SEC in GDN); not …) MSDIGDWFRSIPAITRYWFAATVAVPLVGKLGLISPAYLFLWPEAFLYRFQIWRPITATFYFPVGPGTGFLYLVNLYFLYQYSTRLETGAFDGRPADYLFMLLFNWICIVITGLAMDMQLLMIPLIMSVLYVWAQLNRDMIVSFWFGTRFKACYLPWVILGFNYIIGGSVINELIGNLVGHLYFFLMFRYPMDLGGRNFLSTPQFLYRWLPSRRHNWGQGFRLGDQ",stoichiometry N,4
